From publication PMC1784095

Columns and labels:
[1] = target: T1, ArgR (Escherichia coli K-12 W3110) (UniProt P0A6D0); assay: EMSA; conditions: Crp EMSA: 10 mM Tris-HCl pH 8.0, 50 mM KCl, 1 mM EDTA, 0.1 mM DTT, 50 ug/ml BSA, 10 ug/ml poly(dI-dC), 12.5% glycerol, cAMP (20 uM in Results, 20 mM in Methods …)
T1 sequence: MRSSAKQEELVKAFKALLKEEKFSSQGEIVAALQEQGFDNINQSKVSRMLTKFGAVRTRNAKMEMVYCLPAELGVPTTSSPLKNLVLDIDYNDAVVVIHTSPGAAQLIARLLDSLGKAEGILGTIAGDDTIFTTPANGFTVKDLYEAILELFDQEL

[2] = system: Crp (Escherichia coli K-12 W3110); assay: EMSA; conditions: 20 uM cAMP; apparent Kd; Crp EMSA: 10 mM Tris-HCl pH 8.0, 50 mM KCl, 1 mM EDTA, 0.1 mM DTT, 50 ug/ml BSA, 10 ug/ml poly(dI-dC), 12.5% glycerol, cAMP (20 uM in Results, 20 mM in Methods …)

Substance | Kd [1] | Kd ([1]; 5 mM L-arginine, apparent Kd, Hill 2.0) | Kd [2]
AATTCGGCGATGACCTGGATCAATCGTCCCGGCCTGCTTTTATCAACTGCATAATCAATCAAAATTACCGAAATTTCATGCATAATCACATAAATCACTTTTGCTTATCTTGTGTCAGATTTTTTTATCTCCTGATGGATTTTAGGCAAAAACAGTAGCATGAAACGTCATTACCAATTAAGGCAGTATAAAATGCTGGTTTTGTCGTCAGTTCAAGGCAGGATAAGGGTTAACACACCTTTATGACAGTCAGGAATTGACTGTTTCTCTAACGACTTC (double strand) [PgltB -406 to -128] | 1.7 nM | – | –
PgltB -406 to +246 | – | 1.8 nM | 35 nM
